# Biological target: T1, MMP-2 (Mus musculus, UniProt P33434)
# T1 construct: purchased R&D Systems
# Assay: In vitro protein binding assay (CLU-His pull-down, gelatin zymography), MMP-2
# Settings: 150 mM NaCl binding buffer
# Description: A mixture of MMP-2, MMP-9, and C-terminal truncated MMP-9 (9-ΔC) was incubated with His-tagged CLU, used in a pull-down assay and resolved on a gelatin zymography gel. The input and bound samples were loaded in a series of dilution.
# Next, we tested the interaction of secreted CLU using mouse recombinant proteins. We used purified recombinant proteins of MMP-2, MMP-9, and CLU that were secreted from a mouse myeloma cell line (NSO). All of the proteins were purchased from R&D Systems. A mixture of MMP-2, MMP-9, and C-terminal truncated MMP-9 (9-ΔC) was incubated with His-tagged CLU, and subjected to the pull-down assay, using 150 mM NaCl-containing binding buffer and anti-His tag antibody resins. Portions of the input samples (Input) and proteins bound to the antibody (Bound) were resolved on the gelatin zymography gel.
# The recombinant CLU contains a (His)6-Tag at the C-terminus of the protein, which was used for pull-down experiments with anti-His tag antibody beads. It was previously reported that CLU also binds to MT6-MMP/mmp-25 and that the hemopexin domain in the MMP C-terminal region is required for their interaction (Matsuda et al., 2003). To use as an internal control for the binding experiment, we removed part of MMP-9 (MMP-9-ΔC) by promoting self-processing by APMA (4-aminophenylmercuric acetate) treatment. […]
# T1 sequence (P33434 110-662): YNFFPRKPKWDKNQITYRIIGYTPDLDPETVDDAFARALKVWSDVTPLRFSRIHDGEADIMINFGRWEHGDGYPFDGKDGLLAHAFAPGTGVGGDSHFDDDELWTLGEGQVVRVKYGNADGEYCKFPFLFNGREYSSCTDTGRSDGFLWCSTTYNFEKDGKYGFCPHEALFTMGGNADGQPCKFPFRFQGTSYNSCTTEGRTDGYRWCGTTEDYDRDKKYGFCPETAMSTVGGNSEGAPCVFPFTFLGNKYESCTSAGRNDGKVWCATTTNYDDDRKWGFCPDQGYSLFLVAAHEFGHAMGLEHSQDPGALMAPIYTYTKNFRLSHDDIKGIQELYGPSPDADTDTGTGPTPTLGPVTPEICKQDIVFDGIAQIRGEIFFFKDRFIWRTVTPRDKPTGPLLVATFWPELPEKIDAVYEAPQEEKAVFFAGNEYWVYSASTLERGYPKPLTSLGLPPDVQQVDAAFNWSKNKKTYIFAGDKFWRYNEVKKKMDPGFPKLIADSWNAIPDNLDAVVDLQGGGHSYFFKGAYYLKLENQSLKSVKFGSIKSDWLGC
molecule,measurement,value
"CLU: secreted disulfide-linked heterodimeric glycoprotein (70-80 KD); assays used recombinant mouse CLU with C-terminal (His)6 (protein, UniProt Q06890 22-448, looked up, C-terminal His6 tag) Clusterin: EQEVSDNELQELSTQGSRYINKEIQNAVQGVKHIKTLIEKTNAERKSLLNSLEEAKKKKEDALEDTRDSEMKLKAFPEVCNETMMALWEECKPCLKHTCMKFYARVCRSGSGLVGQQLEEFLNQSSPFYFWMNGDRIDSLLESDRQQSQVLDAMQDSFARASGIIDTLFQDRFFARELHDPHYFSPIGFPHKRPHFLYPKSRLVRSLMSPSHYGPPSFHNMFQPFFEMIHQAQQAMDVQLHSPAFQFPDVDFLREGEDDRTVCKEIRRNSTGCLKMKGQCEKCQEILSVDCSTNNPAQANLRQELNDSLQVAERLTEQYKELLQSFQSKMLNTSSLLEQLNDQFNWVSQLANLTQGEDKYYLRVSTVTTHSSDSEVPSRVTEVVVKLFDSDPITVVLPEEVSKDNPKFMDTVAEKALQEYRRKSRAE",binding of MMP-2 to His-tagged CLU,"Though weaker than MMP-9, MMP-2 also had an affinity for CLU"

# — patent publication US10398755B2, “Clusterin pharmaceuticals and treatment methods using the same” (UNIVERSITY OF SOUTHERN CALIFORNIA, priority 2009, dated 2019)
